Measured values published in the supplement of paper PMC12636428.

These sequences were tested on Saccharomyces cerevisiae (assay: transcriptional activation domain activity (GFP:mCherry ratio, weighted mean of sorted bins, harmonized to initial dataset scale) (arbitrary fluorescence ratio units); higher = stronger transcriptional activation). Conditions: beta-estradiol 1 µM; induction time 4 h.
Outline: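 In diploid yeast carrying a GFP reporter, barcoded protein tiles fused to an estradiol-inducible synthetic transcription factor were integrated at the URA3 locus. Cultures diluted 1:5 into SC with 1 uM beta-estradiol were kept at 30 °C for 4 hours, then sorted by GFP:mCherry ratio into 8 bins before barcode sequencing. Tiles with under 50 reads were excluded. The activation activity reported here is the read-weighted mean of bin median fluorescence, averaged across barcodes and linearly rescaled to the initial dataset.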

| Sequence | transcriptional activation domain activity |
| --- | --- |
| FITSLMLFQAVPCFLVHVIMLFPFFRNFPHQFRYRDPFTMVLLSFSFIFLFTF | 62700 |
| FIVHTAELHLFRKQYVGQLYRSQKLLGLLARRPHIARLVTRFGMHAMSAPLFY | 57100 |
| FIVLYLSHRQLIIVNPCYLLGHHACSLLCLLILHNFHIWLSYVGTVLFCFCFS | 78400 |
| FIVVLLTMEVIIHYLYMVAIFHVKPDWSQFTAAQLSMMGFLNLKHIWLKLLIP | 39000 |
| FKCCAVAFPIVCFATPYTALIQRPLVQQAAMFGIMIVKCFAVIFAFPCSIILL | 81600 |
| FKDLLVEGFDNNRLIVAIPFVCKVLEQASKSRVFKPPNPWLMAILRLLVELYH | 51200 |
| FKDNPKVIETKDKVMHYNTQLRYHGLRDHQVNIRNTRRHAIALLIWRVVQMVF | 39500 |
| FKEGVSLTVLDELYRWQKYAYGCDEIIFNPIFTWWKKGPISLQLRNFVWSIAP | 57100 |
| FKLNTVTNLNEIDFTNIFTKSPHPHSGSTHPRQVFDQLDDCSSILFSPLTTNT | 67700 |
| FKSMIFFLWFLDTLQLAFVIHALYYYLITSYGNIVALMKPTWSILLQIYVTSL | 69400 |
| FKSQLFCFYNLRLFVSCQPKHLNDLVDLLKKYHGSHVYQFVFTLSAFLERVAQ | 48800 |
| FKVGIDGCLRLRGAGSTLCFHRVVRILTATIGTMVRVLFVCKELWRVTGEETS | 51700 |
| FKVLMQVMPFVLHGLVDDKLRTLWRMLGELGAFLWMPLIKDKEVYLRKLAVII | 48700 |
| FLAAVTCLLCVIGIFICLLFHANPYLRLIPLLIMIQSICFVLFSHFGLCLYRL | 39400 |
| FLARLESLHRALGLYLWFSYRYPNIIISQALAFHAKSMLEAKIDDLLQKMSFD | 44300 |
| FLAYVAKRIVWAIIRTIVYLRRDYLGYLSLGRGRSPSNVRGWLANKWYQFLLL | 50100 |
| FLCIFFLSLFFYTFSISYLYVWCLPPPPRRQTCLPTLTFISLPFVSALFLSFG | 59100 |
| FLCIFSPFSRMISCLVYRSLFCSSYITSINLIVSVSKVVRRFIIRIFPLLFTI | 51400 |
| FLDCLKYILHNSHHLLVTVCDSFERTVRGLNKLKKMNVRQKDIYIGYYLLQYG | 46200 |
| FLDFLDLWTFGLFGPLDFLDFLDFLDFLDFLDFLDFLDLWTFGLFGPLDFLDF | 46900 |
| FLDLVLPHVGRWSDFVAYIPGVTVVEVNYLLRRLGSPKCGPALLLEKLHLFFF | 54400 |

| Sequence | transcriptional activation domain activity |
| --- | --- |
| FLDRGRVGFFFFFLLVSFYSSSWKLLFLLYTHFFVFSGLLALYYFLFWSVLFI | 68800 |
| FLDVSTSYDIGNPPSISDDLLDLSIFTAQNFQSPSIDFRRVKLMHDFLDVSRF | 125000 |
| FLFFFFLLLFLLYSSLPLPPFLYPSLPLCRFSLFYYYLLLWFHFPCFSPFFLF | 57900 |
| FLGTAMYFLYGESVIYYFKHILLVDRILLPLATHHRFISFMLYIIGFVFFVFS | 51000 |
| FLHCEPPTLLRLLGFFLCLVFSLYFTLSFPFFGPMLLLIRFSLGLPLPLVLMG | 58300 |
| FLHLATLKEKMGNRFRAKQSDISPEINLVLLGVLTLTVRFNPTLVSYVTTLRT | 50600 |
| FLHLLKIIRPSFAFYFTILFWWCIQVQLLLQIIINRIRVIVPNRKLSRHIMWG | 66300 |
| FLHLLKYIRPSFAFYFTILFWWCIQVQLLLQIIINRIRVIVPDRRHSRHIMIA | 68800 |
| FLKIYLLNPLHMTRFTDLLHQGFILNRVFQPYESHLQYLLQWMCDYNLYGCAY | 39200 |
| FLLAIRVSNMDLLMIGIMLTLFVRNVIVSTDYIRRGRVRYKALFYVLLCKYYR | 49600 |
| FLLCTFFAIFAFLLCYLLAFFSFHVFLYDDSLFLFYYCMSAACTFFCCMFLEF | 39600 |
| FLLDIFLLLVPSFPFSYTPFLVTSLFLVLCDIDVFLRFIYVHIYLVTLICTFM | 30400 |
| FLLFLSFGGLGGGIYSLCFGHIFSSLFLLFVLFSTSFPYMGPQLHVVMMPTCT | 40500 |
| FLLGVFVCLVNLREWWMVDRGPRIMMGEFGKVLSVRMRFALTLHFREQVHVNH | 48800 |
| FLLLFFFFVYFHLSFSFLTFLLSPLFVFIFMFYFGSFIFLPLSLFLFSLLFFS | 66100 |
| FLLLMFQGLDIFTPVIRVLHFRICLLLLLLIILLAVPLLFSYIIFSRPFLSLV | 43900 |
| FLLSILFLLSFFYSFFSFSLFIFDRLCQFSHFVDLPSLHYLSLCVFLSILCLF | 37100 |
| FLLSTSFYFVFILFLFHFYIVLFLLPPPSLSFPLSLPYLSAFIVLTPTQLWPA | 77600 |
| FLLTLLCMEVVLHFDYCVAISKANPDWSKYTPIQLSLLSYFNLHILWLKLLIP | 63400 |
| FLLTVYHIELLRNKSGDCSFMLRYFMNQGVNNSSLSTCMEHVAEAVVSTFINE | 30600 |
| FLMLVCLEVIGRGLTNKVVLMPSGLYCIPNIIHPKGFQLALEIIFLVLFIPCP | 39600 |
